Source: article PMC6309453

Columns and labels:
[1] = target: T1, GST-SND1 (NST3) (Arabidopsis thaliana) (UniProt Q9LPI7); assay: EMSA; details: 10 mM Tris pH 7.5, 50 mM KCl, 1 mM DTT, 2.5% glycerol, 5 mM MgCl2, 0.1% IGEPAL CA-630, 0.05 ug/ul calf thymus DNA, 150 ng protein, 30 min room temperature
T1 sequence: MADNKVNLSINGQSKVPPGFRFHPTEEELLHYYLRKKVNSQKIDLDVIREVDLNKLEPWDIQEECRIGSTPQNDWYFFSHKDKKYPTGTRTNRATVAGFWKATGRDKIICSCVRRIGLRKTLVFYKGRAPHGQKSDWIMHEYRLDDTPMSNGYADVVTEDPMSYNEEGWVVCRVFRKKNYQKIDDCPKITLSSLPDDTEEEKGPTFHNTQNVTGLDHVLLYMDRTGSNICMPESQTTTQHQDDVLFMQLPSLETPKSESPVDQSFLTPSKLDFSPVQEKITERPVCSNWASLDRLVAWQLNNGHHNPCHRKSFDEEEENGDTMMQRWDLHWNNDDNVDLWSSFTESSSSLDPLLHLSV

[2] = target: T2, GST-NST2 (Arabidopsis thaliana) (UniProt Q9M274); assay: EMSA; details: 10 mM Tris pH 7.5, 50 mM KCl, 1 mM DTT, 2.5% glycerol, 5 mM MgCl2, 0.1% IGEPAL CA-630, 0.05 ug/ul calf thymus DNA, 150 ng protein, 30 min room temperature
T2 sequence: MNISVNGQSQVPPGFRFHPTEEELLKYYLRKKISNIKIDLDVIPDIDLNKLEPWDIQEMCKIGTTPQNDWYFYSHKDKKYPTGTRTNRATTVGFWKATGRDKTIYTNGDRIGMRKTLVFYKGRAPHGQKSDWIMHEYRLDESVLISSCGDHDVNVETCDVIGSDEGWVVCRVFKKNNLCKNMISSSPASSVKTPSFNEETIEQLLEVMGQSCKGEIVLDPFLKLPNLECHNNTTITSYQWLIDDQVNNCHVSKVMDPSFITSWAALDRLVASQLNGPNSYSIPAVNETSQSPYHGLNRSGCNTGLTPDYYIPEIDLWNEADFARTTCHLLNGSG

Sequence | binding [1] | binding [2]
GTTGGAAGCTCAAGCAATTAAATTATATAAAAACACTAACTACACTGAGCTGTCTCCTTCTTCCACCAAATCTTGTTGCTGTCTCTTGAAGCTTTCTTATGACAC (double strand) [CESA4Sha-E] | binds | binds
GAAAGCTACTCTAAGTTATACAAATTCTAAAGAACTCAAAAGAATAACAAACAGTAGAAGTTGGAAGCTCAAGCAATTAAATTA (double strand) [CESA4Bay-D] | no binding | no binding
GTTGGAAGCTCAAGCAATTAAATTATATAAAAACACTAACTACACTGAGCTGTCTCCTTCTTCCACCAAATCTTGTTGCTGTCTCTTGAAGCTTTCTTATGACAC (double strand) [CESA4Bay-E] | binds | binds
GAAAGCTACTCTAAGTTATACAAATTCTAAAGAACTCAAAAGAATAACAAACAGTAGAAGTTGGAAGCTCAAGCAATTAAATTA (double strand) [CESA4Sha-D] | no binding | no binding
CCAGATTTGGTAAAGTTTATAAGATACAAAATATTAAGTAAGACTAAAGTAGAAATACATAATAACTTGAAAGCTACTCTAAGTTATACAAATTCTAAAGAACTCAAAAGAATAAC (double strand) [CESA4Bay-C] | binds | binds
